We go through 56 variants from the RNAGym collection of RNA variant scans (doi:10.7554/elife.90254).

B1: LINE1-mini (parent)
chain: GGCAGAGCUCAACACAGCGUGGCAAAGUGGCUGUGGCUAGACUGCC

This data set covers variants of B1. The experiment in a line: self-cleavage, relative activity (ratio to wild type); higher = more cleavage; in vitro, sequencing; the parent is a self-cleaving ribozyme.
For the variant GGCAGAGAUCAACACAGCGUGGCAAAGUGGCUGUGGCUAGAAUGCC [C8A C42A], the self-cleavage is 0.29.
The figure for GGCAGAGGUCAACACAGCGUGGCAAAGUGGCUGUGGCUAGACUGCC [C8G] is 0.13; for GGCAGAGAUCAACACAGCGUGGCAAAGUGGCUGAGGCUAGACUGCC [C8A U34A] it is 0.25.
Under GGCAGAGAUCAACACAGCGUGGCAAAGUGGCUGCGGCUAGACUGCC [C8A U34C] stands 0.26.
As to GGCAGAGAUCAACACAGCGUGGCAAAGUGGCUGGGGCUAGACUGCC [C8A U34G], the self-cleavage was found to be 0.34.
Under GGCAGAGAUCAACACAGCGUGGCAAAGUGGCUGUGGCGAGACUGCC [C8A U38G] stands 0.07.
The figure for GGCAGAGAUCAACACAGCGUGGCAAAGUGGCUGUGGCAAGACUGCC [C8A U38A] is 0.26; for GGCAGAGAUCAACACAGCGUGGCAAAGUGGCUGUGGCCAGACUGCC [C8A U38C] it is 0.2.
The figure for GGCAGAGAUCAACACAGCGUGGCAAAGUGGCCGUGGCUAGACUGCC [C8A U32C] is 0.23; for GGCAGAGAUCAACACAGCGUGGCAAAGUGGCGGUGGCUAGACUGCC [C8A U32G] it is 0.45.
GGCAGAGAUCAACACAGCGUGGCAAAGUGGCAGUGGCUAGACUGCC [C8A U32A]: the self-cleavage came to 0.16.
The figure for GGCAGAGAUCAACACAGCGUGGCAGAGUGGCUGUGGCUAGACUGCC [C8A A25G] is 0.23; for GGCAGAGAUCAACACAGCGUGGCACAGUGGCUGUGGCUAGACUGCC [C8A A25C] it is 0.45; for GGCAGAGAUCAACACAGCGUGGCAUAGUGGCUGUGGCUAGACUGCC [C8A A25U] it is 0.36.
GGCAGAGAUCAACACAGCGUGGCAAAGUGGCUGUGGCUAGACUGGC [C8A C45G]: the self-cleavage worked out at 0.28.
For the variant GGCAGAGAUCAACACAGCGUGGCAAAGUGGCUGUGGCUAGACUGUC [C8A C45U], the self-cleavage was 0.32.
The figure for GGCAGAGAUCAACACAGCGUGGCAAAGUGGCUGUGGCUAGACUGAC [C8A C45A] is 0.7; for GGCAGAGAUCAACACAGCGUGGCAAAGUGGCUGUGGCUCGACUGCC [C8A A39C] it is 0.32.
Consider GGCAGAGAUCAACACAGCGUGGCAAAGUGGCUGUGGCUGGACUGCC [C8A A39G], for which the self-cleavage was 0.08.
Turning to GGCAGAGAUCAACACAGCGUGGCAAAGUGGCUGUGGCUUGACUGCC [C8A A39U], the self-cleavage was found to be 0.45.
Under GGCAGAGAUCAACACAGCUUGGCAAAGUGGCUGUGGCUAGACUGCC [C8A G19U] stands 0.11.
The figure for GGCAGAGAUCAACACAGCCUGGCAAAGUGGCUGUGGCUAGACUGCC [C8A G19C] is 0.1; for GGCAGAGAUCAACACAGCAUGGCAAAGUGGCUGUGGCUAGACUGCC [C8A G19A] it is 0.38; for GGCAGAGGUCAACACCGCGUGGCAAAGUGGCUGUGGCUAGACUGCC [C8G A16C] it is 0.11.
The figure for GGCAGAGAUCAACACAGCGUGGCAAAGUGGCUGUGGCUAGACGGCC [C8A U43G] is 0.11; for GGCAGAGAUCAACACAGCGUGGCAAAGUGGCUGUGGCUAGACCGCC [C8A U43C] it is 0.17; for GGCAGAGAUCAACACAGCGUGGCAAAGUGGCUGUGGCUAGACAGCC [C8A U43A] it is 0.14.
For the variant GGCAGAGAGCAACACAGCGUGGCAAAGUGGCUGUGGCUAGACUGCC [C8A U9G], the self-cleavage was found to be 0.03.
The figure for GGCAGAGAACAACACAGCGUGGCAAAGUGGCUGUGGCUAGACUGCC [C8A U9A] is 0.24; for GGCAGAGACCAACACAGCGUGGCAAAGUGGCUGUGGCUAGACUGCC [C8A U9C] it is 0.14.
The figure for GGCAGAGGUCACCACAGCGUGGCAAAGUGGCUGUGGCUAGACUGCC [C8G A12C] is 0.02.
Under GGCAGAGGUCAUCACAGCGUGGCAAAGUGGCUGUGGCUAGACUGCC [C8G A12U] stands 0.13.
In the case of GGCAGAGGUCAGCACAGCGUGGCAAAGUGGCUGUGGCUAGACUGCC [C8G A12G], the self-cleavage is 0.03.
The figure for GGCAGAGAUCAACACAGCGUGGUAAAGUGGCUGUGGCUAGACUGCC [C8A C23U] is 0.27; for GGCAGAGAUCAACACAGCGUGGAAAAGUGGCUGUGGCUAGACUGCC [C8A C23A] it is 0.25; for GGCAGAGAUCAACACAGCGUGGGAAAGUGGCUGUGGCUAGACUGCC [C8A C23G] it is 0.22.
Under GGCAGAGAUCAACACACCGUGGCAAAGUGGCUGUGGCUAGACUGCC [C8A G17C] stands 0.22.
Under GGCAGAGAUCAACACAUCGUGGCAAAGUGGCUGUGGCUAGACUGCC [C8A G17U] stands 0.27.
For GGCAGAGAUCAACACAACGUGGCAAAGUGGCUGUGGCUAGACUGCC [C8A G17A], the self-cleavage was determined as 0.3.
Take GGCAGAGAUCAACACAGCGUGGCGAAGUGGCUGUGGCUAGACUGCC [C8A A24G]: the self-cleavage stood at 0.38.
Under GGCAGAGAUCAACACAGCGUGGCUAAGUGGCUGUGGCUAGACUGCC [C8A A24U] stands 0.34; under GGCAGAGAUCAACAAAGCGUGGCAAAGUGGCUGUGGCUAGACUGCC [C8A C15A], 0.37; under GGCAGAGAUCAACAGAGCGUGGCAAAGUGGCUGUGGCUAGACUGCC [C8A C15G], 0.22.
As for GGCAGAGAUCAACAUAGCGUGGCAAAGUGGCUGUGGCUAGACUGCC [C8A C15U], the self-cleavage came out at 0.23.
The figure for GGCAGAGAUCAAAACAGCGUGGCAAAGUGGCUGUGGCUAGACUGCC [C8A C13A] is 0.67; for GGCAGAGAUCAAGACAGCGUGGCAAAGUGGCUGUGGCUAGACUGCC [C8A C13G] it is 0.36.
Under GGCAGAGAUCAAUACAGCGUGGCAAAGUGGCUGUGGCUAGACUGCC [C8A C13U] stands 0.9; under GGCAGAGAUCAACACAGCGUGGCAAAGUGGGUGUGGCUAGACUGCC [C8A C31G], 0.15.
The figure for GGCAGAGAUCAACACAGCGUGGCAAAGUGGAUGUGGCUAGACUGCC [C8A C31A] is 0.36; for GGCAGAGAUCAACACAGCGUGGCAAAGUGGUUGUGGCUAGACUGCC [C8A C31U] it is 0.21.
As for GGCAGAGAUCAACACAGCGUGGCAAAGUGGCUGUGGCUAGACUCCC [C8A G44C], the self-cleavage is 0.23.
The figure for GGCAGAGAUCAACACAGCGUGGCAAAGUGGCUGUGGCUAGACUUCC [C8A G44U] is 0.43.
For the variant GGCAGAGAUCAACACAGCGUGGCAAAGUGGCUGUGGCUAGACUACC [C8A G44A], the self-cleavage turned out to be 0.45.
The figure for GGCAGAGAUCAACACAGCGUGGCAAAGUGGCUGUGGGUAGACUGCC [C8A C37G] is 0.1; for GGCAGAGAUCAACACAGCGUGGCAAAGUGGCUGUGGAUAGACUGCC [C8A C37A] it is 0.12; for GGCAGAGAUCAACACAGCGUGGCAAAGUGGCUGUGGUUAGACUGCC [C8A C37U] it is 0.17.
